Earlier results, collected in article PMC10382592.

Target: Cys23 (UniProt position 23, FIKPTCPYCRR)

Glutaredoxin-1 (GLRX, thioltransferase) (Homo sapiens (inferred from the title of ref 11, 'Thiotransferase in human red blood cells'; the sentence itself refers to mammalian GLRX))
pKa: approximately 3.5
